Positions of bridges follow the written chain, without caps; N, C: chain ends. Non-standard residues stand in square brackets, D forms with d. No end group written: not given here. Aib = CC(C)(N)C(=O)O
Test system: not given
Experiment: not given
Details: in vivo; cited from earlier work

Row | Molecule | side effects
1 | contrave | cardiovascular side effects

Same assay, conditions: reported; cited from earlier work

Row | Molecule | side effects
2 | Cc1c(C(=O)NN2CCCCC2)nn(-c2ccc(Cl)cc2Cl)c1-c1ccc(Cl)cc1 [rimonabant] | central nervous system side effects
3 | CC(C)CC(N(C)C)C1(c2ccc(Cl)cc2)CCC1 (centres unmarked) [sibutramine] | cardiovascular side effects

Same assay, conditions: taken for one year; cited from earlier work

Row | Molecule | body weight loss effect
4 | CCCCCCCCCCC[C@@H](C[C@@H]1OC(=O)[C@H]1CCCCCC)OC(=O)[C@H](CC(C)C)NC=O [orlistat] | about 4 kg

Biological target: human glucagon receptor (human, UniProt P47871 26-477)
Experiment: cell-based or functional assay
Details: not given

Sequence of human glucagon receptor (P47871 26-477): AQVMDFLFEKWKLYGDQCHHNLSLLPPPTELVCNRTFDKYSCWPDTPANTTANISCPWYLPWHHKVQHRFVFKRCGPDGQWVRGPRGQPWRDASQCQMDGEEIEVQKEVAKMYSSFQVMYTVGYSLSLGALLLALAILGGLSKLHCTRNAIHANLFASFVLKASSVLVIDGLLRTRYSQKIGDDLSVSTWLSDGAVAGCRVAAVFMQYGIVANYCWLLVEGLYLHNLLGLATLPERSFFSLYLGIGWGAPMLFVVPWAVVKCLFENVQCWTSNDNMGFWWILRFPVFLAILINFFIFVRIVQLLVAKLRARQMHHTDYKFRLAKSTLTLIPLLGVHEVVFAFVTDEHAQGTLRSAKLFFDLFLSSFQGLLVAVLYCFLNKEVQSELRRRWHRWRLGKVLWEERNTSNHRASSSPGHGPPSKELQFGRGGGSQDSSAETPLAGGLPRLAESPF

Row | Molecule | In vitro activity (relative activity to SEQ ID NO: 1, %), cAMP assay, from EC50 [%]
5 | Y[Aib]QGTFTSDYSCYLDSRRAQDFVQWLMNT [glucagon derivative of SEQ ID NO: 13] | 5.2
6 | Y[Aib]QGTFTSDYSKYCDERRAKEFVQWLMNT (lactam 16-20) [glucagon derivative of SEQ ID NO: 35] | 17.7
7 | Y[Aib]QGTFCSDYSKYLDERRAKDFVQWLMNT (lactam 16-20) [glucagon derivative of SEQ ID NO: 41] | 45.2
8 | Y[Aib]QGTFTSDYSKYLDEKRAKEFVQWLMNTC (lactam 16-20) [glucagon derivative of SEQ ID NO: 12] | 56.3
9 | HSQGTFTSDYSKYLDSCEAQDFVQWLMNT [glucagon derivative of SEQ ID NO: 5] | 0.3
10 | Y[Aib]QGTFTSDYSKCLDERRAKDFVQWLMNT (lactam 16-20) [glucagon derivative of SEQ ID NO: 29] | 61.3
11 | Y[Aib]QGTFTSDYSKYLDERRAKEFVQWLMNTC (lactam 16-20) [glucagon derivative of SEQ ID NO: 37] | 226
12 | Y[Aib]QGTFTSDYSKYLDCKRAKEFVQWLMNT (lactam 17-21) [glucagon derivative of SEQ ID NO: 31] | 6.3
13 | Y[Aib]QGTFVSDYSKYLDECRAKDFVQWLMNT (lactam 16-20) [glucagon derivative of SEQ ID NO: 27] | 93.6
14 | SQGTFTSDYSKYLDECRAKEFVQWLMNT (lactam 15-19) [glucagon derivative of SEQ ID NO: 32] | 0.7
15 | Y[Aib]QGTFTSDYSKYCDEKRAKEFVQWLMNT (lactam 16-20) [glucagon derivative of SEQ ID NO: 23] | 76.8
16 | Y[Aib]QGTFTSDCSKYLDSRRAQDFVQWLMNT [glucagon derivative of SEQ ID NO: 43] | 1.6
17 | Y[Aib]QGTFTSDCSKYLDERRAKEFVQWLMNT (lactam 16-20) [glucagon derivative of SEQ ID NO: 36] | 9.9
18 | HSQGTFTSDYSKYLDSCDAQDFVQWLMNT [glucagon derivative of SEQ ID NO: 4] | < 0.1
19 | YXQGTFTSDYSKYLDSRRAQDFVQWLMNT (X at position 2 = aminoisobutyric acid (Aib)) [glucagon derivative of SEQ ID NO: 33] | 108
20 | Y[Aib]QGTFTSDYSKYLDSCDAQDFVVWLINT [glucagon derivative of SEQ ID NO: 9] | < 0.1
21 | Y[Aib]QGTFTSDYSKCLDEKRAKEFVQWLMNT (lactam 16-20) [glucagon derivative of SEQ ID NO: 24] | 58
22 | W[Aib]QGTFVSDYSKYLDECRAKDFVQWLMNT (lactam 16-20) [glucagon derivative of SEQ ID NO: 28] | < 0.1
23 | Y[Aib]QGTFTSDYSKYLCEKRAKEFVQWLMNT (lactam 16-20) [glucagon derivative of SEQ ID NO: 19] | 12.1
24 | YSQGTFTSDYSKYLDSCEADDFVQWLMNT [glucagon derivative of SEQ ID NO: 7] | < 0.1
25 | Y[Aib]QGTFCSDYSKYLDSRRAQDFVQWLMNT [glucagon derivative of SEQ ID NO: 42] | 37.9
26 | Y[Aib]QGTFVSDYSKYLDERRAKDFVQWLMNTC (lactam 16-20) [glucagon derivative of SEQ ID NO: 40] | 40.8

Row | Molecule | In vitro activity (relative activity to SEQ ID NO: 1, %), cAMP assay, from EC50 [%]
27 | Y[Aib]QGTFTSDYSKYLDEKRAKCFVQWLMNT (lactam 16-20) [glucagon derivative of SEQ ID NO: 25] | 46.9
28 | Y[Aib]QGTFTSDYSKYLDEKCAKEFVQWLMNT [glucagon derivative of SEQ ID NO: 11] | 4.6
29 | W[Aib]QGTFTSDYSKYCDERRAKEFVQWLMNT (lactam 16-20) [glucagon derivative of SEQ ID NO: 34] | 0.2
30 | HSQGTFTSDYSKYLDCERAQDFVQWLMNT [glucagon derivative of SEQ ID NO: 3] | 6.1
31 | Y[Aib]QGTFTSDYSKYLDSRRACDFRLWLMNT [glucagon derivative of SEQ ID NO: 18] | < 0.1
32 | W[Aib]QGTFTSDYSKYLDECRAKDFVQWLMNT (lactam 16-20) [glucagon derivative of SEQ ID NO: 26] | 1
33 | Y[Aib]QGTFTSDYSKYLDSCDAQDFVQWLINT [glucagon derivative of SEQ ID NO: 8] | < 0.1
34 | Y[Aib]QGTFTSDYSKYLDCVRAQDFVQWLMRT [glucagon derivative of SEQ ID NO: 17] | 23.2
35 | HSQGTFTSDYSKYLDSCEADDFVQWLMNT [glucagon derivative of SEQ ID NO: 6] | < 0.1
36 | Y[Aib]QGTFTSDYSKYLDEKCAKEFVQWLMNT (lactam 16-20) [glucagon derivative of SEQ ID NO: 21] | 57.8
37 | Y[Aib]QGTFTSDYSKYLDCKRAKEFVQWLMNT [glucagon derivative of SEQ ID NO: 14] | 18.1
38 | YXQGTFTSDYSKYLDSRRAQDFVQWLMNTC (X at position 2 = aminoisobutyric acid (Aib)) [glucagon derivative of SEQ ID NO: 44] | 75.4
39 | Y[Aib]QGTFTSDYSKYLDSCDADDFVVWLINT [glucagon derivative of SEQ ID NO: 10] | < 0.1
40 | Y[Aib]QGTFTSDYSKYLDEKRCKEFVQWLMNT (lactam 16-20) [glucagon derivative of SEQ ID NO: 22] | 148
41 | Y[Aib]QGTFTSDYSKYLDCRRAQVFVQWLMRT [glucagon derivative of SEQ ID NO: 16] | 4.2
42 | W[Aib]QGTFTSDYSKCLDERRAKDFVQWLMNT (lactam 16-20) [glucagon derivative of SEQ ID NO: 30] | 0.3
43 | Y[Aib]QGTFTSDYSCYLDEKRAKEFVQWLMNT [glucagon derivative of SEQ ID NO: 45] | 5.2
44 | Y[Aib]QGTFCSDYSKYLDERRAKEFVQWLMNT (lactam 16-20) [glucagon derivative of SEQ ID NO: 38] | 167
45 | HSQGTFTSDYSKYLDCDRAQDFVQWLMNT [glucagon derivative of SEQ ID NO: 2] | 0.6
46 | Y[Aib]QGTFVSDCSKYLDERRAKDFVQWLMNT (lactam 16-20) [glucagon derivative of SEQ ID NO: 39] | 3.7
47 | Y[Aib]QGTFTSDYSKYLDECRAKEFVQWLMNT (lactam 16-20) [glucagon derivative of SEQ ID NO: 20] | 300

Source: patent publication US20230000950A1, “COMPOSITION COMPRISING GLUCAGON AND GLP-1 AND GIP RECEPTOR DUAL AGONIST AND THERAPEUTIC USE OF SAME” (HANMI PHARM. CO., LTD., priority 2019, published 2023)
